Laboratory results from patent US20120315277A1, “Compositions and Methods for the Therapy and Diagnosis of Influenza” (priority 2011, published 2012).
Where two headings read alike, the source gives them in different places.

Experiments:
[1] = target: M2 peptide SEQ ID NO 273; test: peptide ELISA, 5 µg/mL
[2] = target: truncated M2 peptide SEQ ID NO 271; test: peptide ELISA, 5 µg/mL
[3] = target: truncated M2 peptide SEQ ID NO 298; test: peptide ELISA, 5 µg/mL
[4] = target: truncated M2 peptide SEQ ID NO 299; test: peptide ELISA, 5 µg/mL
[5] = target: truncated M2 peptide SEQ ID NO 300; test: peptide ELISA, 5 µg/mL
[6] = target: truncated M2 peptide SEQ ID NO 301; test: peptide ELISA, 5 µg/mL
[7] = target: truncated M2 peptide SEQ ID NO 302; test: peptide ELISA, 5 µg/mL
[8] = target: truncated M2 peptide SEQ ID NO 303; test: peptide ELISA, 5 µg/mL
[9] = target: truncated M2 peptide SEQ ID NO 304; test: peptide ELISA, 5 µg/mL
[10] = target: truncated M2 peptide SEQ ID NO 305; test: peptide ELISA, 5 µg/mL
[11] = target: truncated M2 peptide SEQ ID NO 306; test: peptide ELISA, 5 µg/mL
[12] = target: truncated M2 peptide SEQ ID NO 307; test: peptide ELISA, 5 µg/mL
[13] = target: truncated M2 peptide SEQ ID NO 308; test: peptide ELISA, 5 µg/mL
[14] = target: truncated M2 peptide SEQ ID NO 309; test: peptide ELISA, 5 µg/mL
[15] = target: truncated M2 peptide SEQ ID NO 310; test: peptide ELISA, 5 µg/mL
[16] = target: truncated M2 peptide SEQ ID NO 311; test: peptide ELISA, 5 µg/mL
[17] = target: truncated M2 peptide SEQ ID NO 312; test: peptide ELISA, 5 µg/mL
[18] = target: truncated M2 peptide SEQ ID NO 313; test: peptide ELISA, 5 µg/mL
[19] = target: truncated M2 peptide SEQ ID NO 314; test: peptide ELISA, 5 µg/mL
[20] = target: truncated M2 peptide SEQ ID NO 315; test: peptide ELISA, 5 µg/mL
[21] = target: truncated M2 peptide SEQ ID NO 316; test: peptide ELISA, 5 µg/mL
[22] = target: 23 amino acid synthetic M2e peptide of A/Fort Worth/1/50 (H1N1) (influenza A virus A/Fort Worth/1/50 (H1N1)); test: ELISA on coated 23mer M2e peptide
[23] = target: truncated M2 peptide SEQ ID NO 298; test: peptide ELISA, 5 µg/mL; remark: listed apart in the source
[24] = target: truncated M2 peptide SEQ ID NO 299; test: peptide ELISA, 5 µg/mL; remark: listed apart in the source
[25] = target: truncated M2 peptide SEQ ID NO 309; test: peptide ELISA, 5 µg/mL; remark: listed apart in the source
[26] = target: T1, A.Hong Kong.1144.99.H3N2; test: FACS, transfected 293 cells
T1 M2: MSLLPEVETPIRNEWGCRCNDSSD

[27] = target: T2, A.Hong Kong.1180.99 H3N2; test: FACS, transfected 293 cells
T2 M2: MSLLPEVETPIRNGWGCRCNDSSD

[28] = target: T3, A.Hong Kong.1.68.H3N2; test: FACS, transfected 293 cells, 1 µg/mL
T3 M2: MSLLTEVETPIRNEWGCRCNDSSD

[29] = target: T4, A.Caracas.1.71.H3N2; test: FACS, transfected 293 cells, 1 µg/mL
T4 M2: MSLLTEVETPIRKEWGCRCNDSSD

[30] = target: T3, A.Hong Kong.1.68.H3N2; test: FACS, transfected HEK293, 1 µg/ml [D00006 FIG. 3C-1]
[31] = target: T4, A.Caracas.1.71.H3N2; test: as above

14C2 (chimeric mouse V-region/human IgG1 kappa 14C2 antibody)
ELISA A450 [1]: 3.85
ELISA A450 [2]: 0.21
ELISA A450 [3]: 3.94
ELISA A450 [4]: 3.95
ELISA A450 [5]: 0.15
ELISA A450 [6]: 0.19
ELISA A450 [7]: 0.23
ELISA A450 [8]: 0.19
ELISA A450 [9]: 0.23
ELISA A450 [10]: 0.22
ELISA A450 [11]: 0.27
ELISA A450 [12]: 3.99
ELISA A450 [13]: 3.9
ELISA A450 [14]: 3.97
ELISA A450 [15]: 3.97
ELISA A450 [16]: 0.18
ELISA A450 [17]: 0.2
ELISA A450 [18]: 0.21
ELISA A450 [19]: 0.17
ELISA A450 [20]: 0.15
ELISA A450 [21]: 0.14
EC50 [22]: 0.01 µg/mL

B1: 23K12 (antibody, V domains shown)
VH: EVQLVESGGGLVQPGGSLRISCAASGFTVSSNYMSWVRQAPGKGLEWVSVIYSGGSTYYADSVKGRFSFSRDNSKNTVFLQMNSLRAEDTAVYYCARCLSRMRGYGLDVWGQGTTVTVS
VL: DIQMTQSPSSLSASVGDRVTITCRTSQSISSYLNWYQQKPGKAPKLLIYAASSLQSGVPSRFSGSGSGTDFTLTISGLQPEDFATYYCQQSYSMPAFGQGTKLEIK
ELISA A450 [23]: 0.21
ELISA A450 [24]: 0.21
ELISA A450 [25]: 0.3
binding result [26]: no binding (tested: 1 µg/mL)
binding result [27]: no binding (tested: 1 µg/mL)
binding result [28]: binds
binding result [29]: binds

B2: 8I10 (antibody, V domains shown)
VH: QVQLQESGPGLVKPSETLSLTCTVSGSSISNYYWSWIRQSPGKGLEWIGFIYYGGNTKYNPSLKSRVTISQDTSKSQVSLTMSSVTAAESAVYFCARASCSGGYCILDYWGQGTLVTVS
VL: DIQMTQSPSSLSASVGDRVTITCRASQNIYKYLNWYQQRPGKAPKGLISAASGLQSGVPSRFSGSGSGTDFTLTITSLQPEDFATYYCQQSYSPPLTFGGGTRVEIK
binding result [26]: no binding (tested: 1 µg/mL)
binding result [27]: no binding (tested: 1 µg/mL)
binding result [30]: binds
binding result [31]: binds
